Results from article doi:10.1101/2025.11.17.688653.

Biological target: mouse PIEZO1-R2482H (mouse) (UniProt E2JF22)
Assay: cryo-EM structure

stoichiometry N: 3
Substance: mouse PIEZO1-R2482H, E2JF22 1-2547
